The results in this text go back to article PMC5464768, “ER retention is imposed by COPII protein sorting and attenuated by 4-phenylbutyrate” (eLife, 2017).

For assay [1], the target named is Sec24d (full-length, wild type) (H. sapiens) (UniProt O94855).
For assay [2] the target is unchanged. The source holds these as a separate data set.

Sequence of Sec24d (full-length, wild type) (H. sapiens) (O94855 whole entry): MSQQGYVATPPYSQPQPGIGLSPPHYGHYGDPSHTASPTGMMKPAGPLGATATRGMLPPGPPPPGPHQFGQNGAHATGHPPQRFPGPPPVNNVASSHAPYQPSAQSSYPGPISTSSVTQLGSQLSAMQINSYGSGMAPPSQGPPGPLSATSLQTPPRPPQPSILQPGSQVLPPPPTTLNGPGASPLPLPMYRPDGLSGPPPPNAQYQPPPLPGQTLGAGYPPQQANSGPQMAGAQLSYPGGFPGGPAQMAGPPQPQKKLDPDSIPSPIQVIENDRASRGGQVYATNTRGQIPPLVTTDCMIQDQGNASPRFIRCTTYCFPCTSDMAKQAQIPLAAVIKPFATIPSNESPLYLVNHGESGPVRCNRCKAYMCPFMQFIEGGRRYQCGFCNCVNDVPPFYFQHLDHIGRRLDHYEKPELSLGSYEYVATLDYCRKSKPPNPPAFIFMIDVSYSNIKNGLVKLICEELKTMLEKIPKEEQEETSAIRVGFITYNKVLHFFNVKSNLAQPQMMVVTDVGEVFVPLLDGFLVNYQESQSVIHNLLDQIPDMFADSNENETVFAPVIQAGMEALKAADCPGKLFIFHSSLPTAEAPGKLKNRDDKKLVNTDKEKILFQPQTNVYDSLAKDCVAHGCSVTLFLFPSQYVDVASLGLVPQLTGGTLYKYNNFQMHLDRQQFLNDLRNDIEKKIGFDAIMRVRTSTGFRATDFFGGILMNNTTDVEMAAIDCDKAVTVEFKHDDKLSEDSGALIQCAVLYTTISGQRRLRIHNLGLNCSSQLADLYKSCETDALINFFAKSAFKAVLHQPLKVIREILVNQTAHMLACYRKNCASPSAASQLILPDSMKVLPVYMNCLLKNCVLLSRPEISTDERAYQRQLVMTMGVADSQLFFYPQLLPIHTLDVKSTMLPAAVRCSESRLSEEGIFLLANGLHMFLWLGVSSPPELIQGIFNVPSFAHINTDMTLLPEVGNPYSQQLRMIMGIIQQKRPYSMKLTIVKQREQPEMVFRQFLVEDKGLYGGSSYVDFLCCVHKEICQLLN
Sequence of p24β1 (P49020 16-196): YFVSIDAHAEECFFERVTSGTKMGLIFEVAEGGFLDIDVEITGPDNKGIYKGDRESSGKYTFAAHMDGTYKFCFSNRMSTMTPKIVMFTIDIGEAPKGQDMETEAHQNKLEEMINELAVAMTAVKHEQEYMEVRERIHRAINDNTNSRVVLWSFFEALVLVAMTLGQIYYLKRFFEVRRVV

Turning to p24δ1 (natural protein), in assay [1], the packaging efficiency into COPII vesicles budded with wild-type COPII (Sec23a/24d), amount in vesicle as % of protein present in starting permeabilized cells; CHO-LDLR G544V cells came out at 7.7% and the packaging efficiency into COPII vesicles budded with wild-type COPII (Sec23a/24d), amount in vesicle as % of protein present in starting permeabilized cells; wild-type CHO cells was 4.6%.

In assay [1], “p24β1 (from UniProt P49020 16-196) (natural protein)” showed a packaging efficiency into COPII vesicles budded with wild-type COPII (Sec23a/24d), amount in vesicle as % of protein present in starting permeabilized cells; CHO-LDLR G544V cells of 10.6%. Moreover, in assay [2], the reduction of the packaging rate into COPII vesicles (Sec23a/24d) budded in the presence of 10 mM 4-PBA is 50 % reduction.

Consider p24α2 (natural protein), for which, in assay [1], the packaging efficiency into COPII vesicles budded with wild-type COPII (Sec23a/24d), amount in vesicle as % of protein present in starting permeabilized cells; CHO-LDLR G544V cells was determined as 8.7% and the packaging efficiency into COPII vesicles budded with wild-type COPII (Sec23a/24d), amount in vesicle as % of protein present in starting permeabilized cells; wild-type CHO cells was determined as 10.9%.

Turning to p24α3 (natural protein), in assay [1], the packaging efficiency into COPII vesicles budded with wild-type COPII (Sec23a/24d), amount in vesicle as % of protein present in starting permeabilized cells; CHO-LDLR G544V cells stood at 6.4% and the packaging efficiency into COPII vesicles budded with wild-type COPII (Sec23a/24d), amount in vesicle as % of protein present in starting permeabilized cells; wild-type CHO cells was found to be 6.4%. For the same substance, in assay [2], the reduction of the packaging rate into COPII vesicles (Sec23a/24d) budded in the presence of 10 mM 4-PBA was determined as 50 % reduction.

In the case of ERGIC-53 (natural protein), in assay [1], the packaging efficiency into COPII vesicles budded with wild-type COPII (Sec23a/24d), amount in vesicle as % of protein present in starting permeabilized cells; CHO-LDLR G544V cells came out at 4.5%. The reduction of the packaging rate into COPII vesicles (Sec23a/24d) budded in the presence of 10 mM 4-PBA in assay [2] was determined as 50 % reduction.
